In patent US20250326813A1:

Biological target: T1, human IL2Rβ Fc fusion protein (human) (UniProt P14784)
T1 sequence (looked up): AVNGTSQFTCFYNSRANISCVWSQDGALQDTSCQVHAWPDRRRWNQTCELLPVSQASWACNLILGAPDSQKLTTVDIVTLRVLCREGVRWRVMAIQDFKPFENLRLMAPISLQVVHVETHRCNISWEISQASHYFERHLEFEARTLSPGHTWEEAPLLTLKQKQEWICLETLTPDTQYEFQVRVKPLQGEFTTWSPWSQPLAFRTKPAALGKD
Assay: ELISA, single concentration, anti-flag detection, E. coli-produced clone

B1: EP569 (clone 2021EP22-E03), E. coli-produced (ligand)
chain: APASSSTKKTQLQLEHLLLDLQMILNGINNYKNPKLTRMLTFKFYMPKKATELKHLQCLEEELKPLEEVLNLAQSKNFHLRRKESINHMIVVFPVLKGSETTFMCEYADETATIVEFLNRWITFSQSIISTLT
OD450 nm: 0.871 OD450
